Results taken from the supplement of paper PMC9732359.
± gives the uncertainty stated by the source.

test: protein stability index of a GFP-peptide fusion (yeast GPS) (PSI 1-4); higher = more stable; sorted into four equal gates, so the index is relative within each strain; details: doa10∆
Summary of the method: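 Tiled yeast protein peptides of 17 residues were each joined downstream of GFP, on plasmids that also express Cherry. The pooled library was maintained in yeast, and mid-log cultures in leucine-free medium were sorted into four equal gates on the GFP/Cherry ratio. Plasmids from every gate were amplified by PCR and sequenced on Illumina, with barcodes linking reads to strains. The protein stability index of a peptide is its gate-number-weighted read frequency summed over the gates.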

Question: For QQQQQQQQQQQNNSTGS [SSN2], which protein stability index is on record?
Answer: 2.58 ± 0.06

Question: For QQQRRQLTPQQQQLVNQ [GAL11], which protein stability index is on record?
Answer: 2.72 ± 0.049

Question: For QQVVCIFSYGPHIQKML [POP6], which protein stability index is on record?
Answer: 1.66 ± 0.053

Question: Which protein stability index does the source give for QRKEIKDRISSCSSKEK [SMC4] here?
Answer: 2.28 ± 0.1

Question: Which protein stability index does the source give for QRKNIQSLELMIYDDAH [BRR2] here?
Answer: 2.39 ± 0.047

Question: Which protein stability index does the source give for QRLVTPQRLQRKRHQRA [RPS6A] here?
Answer: 2.64 ± 0.059

Question: Which protein stability index does the source give for QRQYKVQLLLHINSILL [SNF11] here?
Answer: 1.88 ± 0.082

Question: For QRTAQDRVQQDSEDEDS [YML031W/NDC1], which protein stability index is on record?
Answer: 2.78 ± 0.089

Question: For QSQQAQPSDVMFNDLNS [MED2], which protein stability index is on record?
Answer: 3.1 ± 0.057

Question: For QSSFAGTWSAKEAVFKS [FAS2], which protein stability index is on record?
Answer: 2.98 ± 0.078

Question: Which protein stability index does the source give for QSSSSTRSHEYGRKSFR [REC8] here?
Answer: 2.83 ± 0.11

Question: For QSTQTDLEKTERIVVSY [SMC2], which protein stability index is on record?
Answer: 2.98 ± 0.052

Question: For QTARKSTGGKAPRKQLA [HHT1], which protein stability index is on record?
Answer: 3.18 ± 0.11

Question: For QTDAIKSDEAKWKPVLS [RPN5], which protein stability index is on record?
Answer: 2.62 ± 0.14

Question: With QTGTRRNSKLLNTKSIQ [MCD1] as the sequence, how does the protein stability index read?
Answer: 3.29 ± 0.2

Question: With QTKSNGTAGGNTFGSSS [YJL041W/NSP1] as the sequence, how does the protein stability index read?
Answer: 3.28 ± 0.063

Question: Which protein stability index does the source give for QTSVTTNFNEITNTDET [SWP82] here?
Answer: 2.84 ± 0.061

Question: Which protein stability index does the source give for QTYINQELGFCELLKLT [SSN2] here?
Answer: 2.81 ± 0.24

Question: With QVEYALESISHAGTAIG [PRE9] as the sequence, how does the protein stability index read?
Answer: 2.34 ± 0.077

Question: Which protein stability index does the source give for QVGDGLEILIVTKDGVR [PRE7] here?
Answer: 2.64 ± 0.054

Question: For QVLNRYTYSSTLSHLRR [RPB2], which protein stability index is on record?
Answer: 2.88 ± 0.043

Question: For QVLSQSADPSLLIDQFS [SWI1], which protein stability index is on record?
Answer: 3.03 ± 0.1

Question: Which protein stability index does the source give for QVQGQQQAQSFVGKKNT [SSN3] here?
Answer: 2.55 ± 0.053

Question: For QWFEAHYGQTLGKKKNV [RPS8A], which protein stability index is on record?
Answer: 2.556 ± 0.025

Question: With QYSLERNSPFWWTNSHH [PRP8] as the sequence, how does the protein stability index read?
Answer: 2.56 ± 0.078

Question: With QYYRGLPLYEKNTLLER [SWP82] as the sequence, how does the protein stability index read?
Answer: 3.13 ± 0.12

Question: With RAGVTIPSIPNPIANHT [SNF5] as the sequence, how does the protein stability index read?
Answer: 2.46 ± 0.05

Question: With RAKSCGVDAMSVDDLKK [RPL1A] as the sequence, how does the protein stability index read?
Answer: 2.54 ± 0.078

Question: Which protein stability index does the source give for RAKSSSHLFNEYSYVDS [RPN4] here?
Answer: 2.62 ± 0.16

Question: For RALQENGIIMNGTLIGC [YMR153W/NUP53], which protein stability index is on record?
Answer: 1.88 ± 0.09

Question: Which protein stability index does the source give for RAPELLLGARHYTPAVD [SSN3] here?
Answer: 1.67 ± 0.12

Question: For RAQHVKKLATRPKCGDC [RPL34A], which protein stability index is on record?
Answer: 3.06 ± 0.14

Question: For RASDLRMTIRTRGRSAT [RRP43], which protein stability index is on record?
Answer: 2.93 ± 0.1

Question: Which protein stability index does the source give for RATNCRKRKCGHTNQLR [RPL40A] here?
Answer: 3.25 ± 0.092

Question: With RDIFQEDEENSDVLLFQ [RGR1] as the sequence, how does the protein stability index read?
Answer: 3.37 ± 0.061

Question: For RDKAGRLAEVNLKDLNN [RPO21], which protein stability index is on record?
Answer: 3.15 ± 0.11

Question: With RDVSDDVFDTLATYCPR [GRR1] as the sequence, how does the protein stability index read?
Answer: 3.02 ± 0.084

Question: With RDVYVFDKVEVQVRSVM [DIS3] as the sequence, how does the protein stability index read?
Answer: 2.92 ± 0.067

Question: For REIQIDAVLKIFSFHQD [SRB8], which protein stability index is on record?
Answer: 3.27 ± 0.08

Question: With REKLAEVYKAEKDAVSV [RPS24A] as the sequence, how does the protein stability index read?
Answer: 3.27 ± 0.11

Question: Which protein stability index does the source give for REKVRKLSQYVQEMALG [FAS2] here?
Answer: 2.86 ± 0.11

Question: Which protein stability index does the source give for REKYNMKGPAALWDVQF [ARP9] here?
Answer: 3.49 ± 0.073

Question: Which protein stability index does the source give for RENVFFQSQQRRKDTSM [RPB9] here?
Answer: 3.07 ± 0.083

Question: Which protein stability index does the source give for REQYETQVALNESEKDQ [UBP6] here?
Answer: 3.1 ± 0.069

Question: For RESRIVSTEGNVPQTLA [RPL21A], which protein stability index is on record?
Answer: 2.13 ± 0.08

Question: With RFPTKFVTQFRHLRRTG [RET1] as the sequence, how does the protein stability index read?
Answer: 1.41 ± 0.078

Question: Which protein stability index does the source give for RGFFHLNEALLQCPMLY [CSN12] here?
Answer: 2.06 ± 0.071

Question: With RGGFGGRNRGRPNRRGP [RPS2] as the sequence, how does the protein stability index read?
Answer: 3.37 ± 0.095

Question: Which protein stability index does the source give for RGREEAASFKKLYKTPI [PRE10] here?
Answer: 2.6 ± 0.17

Question: With RHLEKEGIIKPISKHSK [RPS25A] as the sequence, how does the protein stability index read?
Answer: 3.04 ± 0.084

Question: Which protein stability index does the source give for RIATEASKLAAYNKKST [HTB1] here?
Answer: 3.21 ± 0.097

Question: For RIFAIAFTRKQANQVKR [RPS1A], which protein stability index is on record?
Answer: 1.59 ± 0.018

Question: With RIKLATTSERVSNENKK [RRI1] as the sequence, how does the protein stability index read?
Answer: 2.88 ± 0.063

Question: With RISGLIYEEVRAVLKSF [HHF1] as the sequence, how does the protein stability index read?
Answer: 3.33 ± 0.14

Question: With RKANREEKLKANKEKKK [RPL24A] as the sequence, how does the protein stability index read?
Answer: 2.88 ± 0.074

Question: With RKDTVSREVLRYEEFAD [RPC40] as the sequence, how does the protein stability index read?
Answer: 3.38 ± 0.11

Question: Which protein stability index does the source give for RKFALEKLYIFYKLNMP [SRP72] here?
Answer: 1.99 ± 0.046

Question: For RKLFPNWIKPSDSEIPP [PRP8], which protein stability index is on record?
Answer: 3.42 ± 0.16

Question: Which protein stability index does the source give for RKPILLPDPKPLPLDLN [ITC1] here?
Answer: 2.34 ± 0.044

Question: With RKVVFPFQLDVADMLTP [UBP6] as the sequence, how does the protein stability index read?
Answer: 2.29 ± 0.11

Question: For RLECVKCKTRAQLTLKR [RPL42A], which protein stability index is on record?
Answer: 2.8 ± 0.096

Question: For RLENKLSEIESLDEILL [SRP68], which protein stability index is on record?
Answer: 2.97 ± 0.095

Question: Which protein stability index does the source give for RLFIGDQNNKKMVGLRG [SNF2] here?
Answer: 2.65 ± 0.1

Question: For RLKQVFNRALDQSISKL [NNF1], which protein stability index is on record?
Answer: 2.05 ± 0.056

Question: Which protein stability index does the source give for RLLITGTPLQNNLHELW [ISW2] here?
Answer: 2.68 ± 0.066

Question: Which protein stability index does the source give for RLNKLNSNGIAMASLYL [SMD1] here?
Answer: 2.82 ± 0.075

Question: Which protein stability index does the source give for RLSNEMHALKNRSEQNG [RGR1] here?
Answer: 3.32 ± 0.12

Question: For RLTGSLLAHKVADEEAN [RPC37], which protein stability index is on record?
Answer: 1.22 ± 0.057

Question: Which protein stability index does the source give for RNADELSSYQKKIIKCD [PRE5] here?
Answer: 2.25 ± 0.058

Question: For RNEKIAVHVTVRGPKAE [RPL11A], which protein stability index is on record?
Answer: 2.54 ± 0.067

Question: For RNETSVDEEDENGTHND [YCG1], which protein stability index is on record?
Answer: 3.08 ± 0.26

Question: With RNIILEARFDVLITSYE [ISW2] as the sequence, how does the protein stability index read?
Answer: 2.85 ± 0.11

Question: For RNMAEEFEYDDEPDEQG [CYT1], which protein stability index is on record?
Answer: 3.12 ± 0.073

Question: For RNQEKKMEKKKSSSLSL [SNM1], which protein stability index is on record?
Answer: 3.53 ± 0.22

Question: Which protein stability index does the source give for RPKCGDCGSALQGISTL [RPL34A] here?
Answer: 1.34 ± 0.08

Question: With RPKKVKLEGSENSEPPA [SNF2] as the sequence, how does the protein stability index read?
Answer: 3.13 ± 0.095

Question: For RPNGRKDHDLKIPLPEV [POP1], which protein stability index is on record?
Answer: 3.06 ± 0.055

Question: For RQFLKANKTNLIESLNT [YML103C/NUP188], which protein stability index is on record?
Answer: 2.76 ± 0.053

Question: With RQLTSMEFSNLYKEFFN [NUT1] as the sequence, how does the protein stability index read?
Answer: 2.48 ± 0.079

Question: Which protein stability index does the source give for RQMKDVNAPLPTPFKVD [RPN2] here?
Answer: 3.07 ± 0.079

Question: Which protein stability index does the source give for RQPSLHKMSMMAHRVKV [RPO21] here?
Answer: 2.2 ± 0.085

Question: Which protein stability index does the source give for RQQAYKTAQTLDENLNS [YJL041W/NSP1] here?
Answer: 2.84 ± 0.078

Question: Which protein stability index does the source give for RQQKLLLETKLRQQYEI [SWI1] here?
Answer: 3.06 ± 0.11

Question: Which protein stability index does the source give for RQREMAEEQTKLQSQSL [YLR018C/POM34] here?
Answer: 3.18 ± 0.045

Question: For RQYVGQLAPSSVDPQSS [DIS3], which protein stability index is on record?
Answer: 2.69 ± 0.05

Question: Which protein stability index does the source give for RREELQQRIREIGLLPE [SMC3] here?
Answer: 3.34 ± 0.12

Question: For RRFNSSIGRTAQGKEFG [RPL17A], which protein stability index is on record?
Answer: 3.03 ± 0.078

Question: For RRGYQVYREVCAACHSL [CYT1], which protein stability index is on record?
Answer: 2.22 ± 0.073

Question: With RRILAAAAAAAAAVSGN [SSN3] as the sequence, how does the protein stability index read?
Answer: 1.41 ± 0.12

Question: Which protein stability index does the source give for RRLPEDESYARAYRIIR [QCR7] here?
Answer: 2.81 ± 0.056

Question: For RRLPMTMFTAEQSELLK [SNF2], which protein stability index is on record?
Answer: 2.99 ± 0.073

Question: With RRRAFKRSQKKHKKKHL [RPB4] as the sequence, how does the protein stability index read?
Answer: 3.16 ± 0.091

Question: With RRRRLKKVEEEENAATL [RPB4] as the sequence, how does the protein stability index read?
Answer: 3.17 ± 0.2

Question: Which protein stability index does the source give for RRRSSTNKSKRPSITEA [MED1] here?
Answer: 3.02 ± 0.09

Question: Which protein stability index does the source give for RSAWNNNNDNDANRNAN [GRR1] here?
Answer: 2.55 ± 0.041

Question: Which protein stability index does the source give for RSDLQSKIQEIESIRSC [YIL149C/MLP2] here?
Answer: 1.89 ± 0.058

Question: With RSIRGSFTSQGTISIQL [MTR3] as the sequence, how does the protein stability index read?
Answer: 2.78 ± 0.067

Question: Which protein stability index does the source give for RSKFLSTVAKFLARVIK [IRR1] here?
Answer: 3.04 ± 0.07

Question: For RSLASFEQTAFSRHAQQ [SIR4], which protein stability index is on record?
Answer: 2.84 ± 0.059

Question: For RSNFRVNLSQEALQYDP [SNU114], which protein stability index is on record?
Answer: 2.69 ± 0.074

Question: With RSPRVVTNALDNIDEKV [NUT1] as the sequence, how does the protein stability index read?
Answer: 2.92 ± 0.056

Question: With RSSSASNEFVPNTSDNN [SWI1] as the sequence, how does the protein stability index read?
Answer: 2.72 ± 0.068
